B1: OprM (natural protein)
chain: CSLIPDYQRPEAPVAAAYPQGQAYGQNTGAAAVPAADIGWREFFRDPQLQQLIGVALENNRDLRVAALNVEAFRAQYRIQRADLFPRIGVDGSGTRQRLPGDLSTTGSPAISSQYGVTLGTTAWELDLFGRLRSLRDQALEQYLATEQAQRSAQTTLVASVATAYLTLKADQAQLQLTKDTLGTYQKSFDLTQRSYDVGVASALDLRQAQTAVEGARATLAQYTRLVAQDQNALVLLLGSGIPANLPQGLGLDQTLLTEVPAGLPSDLLQRRPDILEAEHQLMAANASIGAARAAFFPSISLTANAGTMSRQLSGLFDAGSGSWLFQPSINLPIFTAGSLRASLDYAKIQKDINVAQYEKAIQTAFQEVADGLAARGTFTEQLQAQRDLVKASDEYYQLADKRYRTGVDNYLTLLDAQRSLFTAQQQLITDRLNQLTSEVNLYKALGGGWNQQTVTQQQTAKKEDPQA
notes: OprM, outer-membrane factor of the MexAB-OprM efflux system of Pseudomonas aeruginosa; Homotrimer; also called OprM-ND; outer-membrane factor (OMF); source: reconstituted in POPC nanodiscs (MSP1D1) or DOPC proteoliposomes

Test in all cases: cryo-EM structure; tripartite MexAB-OprM complex self-assembled from MexA and MexB in POPC nanodiscs and OprM in POPC nanodiscs; 10 mM Tris/Cl pH 7.4, 100 mM NaCl; enriched by SEC (Superose 6, detergent-free buffer); single-particle analysis, no symmetry imposed
Series [1] deals with the molecule itself.
Series [2] has as its target T1, MexA (Pseudomonas aeruginosa), P52477.
T1 chain: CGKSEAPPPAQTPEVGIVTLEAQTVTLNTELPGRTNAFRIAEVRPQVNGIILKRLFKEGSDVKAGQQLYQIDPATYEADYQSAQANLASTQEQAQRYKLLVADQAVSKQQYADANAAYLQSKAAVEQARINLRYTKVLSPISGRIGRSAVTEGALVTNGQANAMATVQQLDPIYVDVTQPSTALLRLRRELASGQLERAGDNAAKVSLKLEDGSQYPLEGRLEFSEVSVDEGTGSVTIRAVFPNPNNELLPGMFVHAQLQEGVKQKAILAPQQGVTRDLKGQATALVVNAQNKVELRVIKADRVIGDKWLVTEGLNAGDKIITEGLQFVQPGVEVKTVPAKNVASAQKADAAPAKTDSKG
The settings on record: remark: other sources report otherwise.

The series “OprM” concerns the target B1. The note with it: both partners purified.

As to B1, the “stoichiometry N” value in series [1] was 3.

B2: MexB (natural protein)
chain: MSKFFIDRPIFAWVIALVIMLAGGLSILSLPVNQYPAIAPPAIAVQVSYPGASAETVQDTVVQVIEQQMNGIDNLRYISSESNSDGSMTITVTFEQGTDPDIAQVQVQNKLQLATPLLPQEVQRQGIRVTKAVKNFLMVVGVVSTDGSMTKEDLSNYIVSNIQDPLSRTKGVGDFQVFGSQYSMRIWLDPAKLNSYQLTPGDVSSAIQAQNVQISSGQLGGLPAVKGQQLNATIIGKTRLQTAEQFENILLKVNPDGSQVRLKDVADVGLGGQDYSINAQFNGSPASGIAIKLATGANALDTAKAIRQTIANLEPFMPQGMKVVYPYDTTPVVSASIHEVVKTLGEAILLVFLVMYLFLQNFRATLIPTIAVPVVLLGTFGVLAAFGFSINTLTMFGMVLAIGLLVDDAIVVVENVERVMAEEGLSPREAARKSMGQIQGALVGIAMVLSAVFLPMAFFGGSTGVIYRQFSITIVSAMALSVIVALILTPALCATMLKPIEKGDHGEHKGGFFGWFNRMFLSTTHGYERGVASILKHRAPYLLIYVVIVAGMIWMFTRIPTAFLPDEDQGVLFAQVQTPPGSSAERTQVVVDSMREYLLEKESSSVSSVFTVTGFNFAGRGQSSGMAFIMLKPWEERPGGENSVFELAKRAQMHFFSFKDAMVFAFAPPSVLELGNATGFDLFLQDQAGVGHEVLLQARNKFLMLAAQNPALQRVRPNGMSDEPQYKLEIDDEKASALGVSLADINSTVSIAWGSSYVNDFIDRGRVKRVYLQGRPDARMNPDDLSKWYVRNDKGEMVPFNAFATGKWEYGSPKLERYNGVPAMEILGEPAPGLSSGDAMAAVEEIVKQLPKGVGYSWTGLSYEERLSGSQAPALYALSLLVVFLCLAALYESWSIPFSVMLVVPLGVIGALLATSMRGLSNDVFFQVGLLTTIGLSAKNAILIVEFAKELHEQGKGIVEAAIEACRMRLRPIVMTSLAFILGVVPLAISTGAGSGSQHAIGTGVIGGMVTATVLAIFWVPLFYVAVSTLFKDEASKQQASVEKGQ
notes: MexB, inner-membrane RND multidrug efflux transporter of Pseudomonas aeruginosa; wild type; Homotrimer, both alone in the nanodisc (MexB-solo, LTC form) and in the tripartite complex (MexB-trio, LTO form); also called MexB-solo; MexB-trio; source: reconstituted in POPC nanodiscs (MSP1E3D1) or DOPC/cholesterol proteoliposomes
B2: in series [1], the “stoichiometry N” value came out at 3.

B3: MexA, P52477 24-383 (natural protein)
chain: CGKSEAPPPAQTPEVGIVTLEAQTVTLNTELPGRTNAFRIAEVRPQVNGIILKRLFKEGSDVKAGQQLYQIDPATYEADYQSAQANLASTQEQAQRYKLLVADQAVSKQQYADANAAYLQSKAAVEQARINLRYTKVLSPISGRIGRSAVTEGALVTNGQANAMATVQQLDPIYVDVTQPSTALLRLRRELASGQLERAGDNAAKVSLKLEDGSQYPLEGRLEFSEVSVDEGTGSVTIRAVFPNPNNELLPGMFVHAQLQEGVKQKAILAPQQGVTRDLKGQATALVVNAQNKVELRVIKADRVIGDKWLVTEGLNAGDKIITEGLQFVQPGVEVKTVPAKNVASAQKADAAPAKTDSKG
modifications: here or on the partner: lipid moiety of the N-terminal cysteine; lipid moiety of the N-terminal cysteine
For the molecule B3, in series [2], the stoichiometry N is 6.

B4: MexA (natural protein)
chain: CGKSEAPPPAQTPEVGIVTLEAQTVTLNTELPGRTNAFRIAEVRPQVNGIILKRLFKEGSDVKAGQQLYQIDPATYEADYQSAQANLASTQEQAQRYKLLVADQAVSKQQYADANAAYLQSKAAVEQARINLRYTKVLSPISGRIGRSAVTEGALVTNGQANAMATVQQLDPIYVDVTQPSTALLRLRRELASGQLERAGDNAAKVSLKLEDGSQYPLEGRLEFSEVSVDEGTGSVTIRAVFPNPNNELLPGMFVHAQLQEGVKQKAILAPQQGVTRDLKGQATALVVNAQNKVELRVIKADRVIGDKWLVTEGLNAGDKIITEGLQFVQPGVEVKTVPAKNVASAQKADAAPAKTDSKG
modifications: lipid moiety of the N-terminal cysteine
notes: MexA, periplasmic membrane fusion lipoprotein of Pseudomonas aeruginosa; N-terminal cysteine carries a lipid moiety; Six copies (a hexamer of two non-equivalent protomers, MexA-I and MexA-II) stand in the tripartite complex; also called MexA-I; MexA-II; source: reconstituted with MexB in POPC nanodiscs or DOPC/cholesterol proteoliposomes
In the case of B4, the “stoichiometry N” value in the series with OprM came to 2 MexA per OprM.

Source of the values: publication PMC7532149, “Antibiotic export by MexB multidrug efflux transporter is allosterically controlled by a MexA-OprM chaperone-like complex” (Nature Communications, 2020).
